From PMC12905490, “Identification and functional characterization of two CXCL17 paralogs from zebrafish” (Biochemical Journal, 2026) come the findings set out here.

Assay [1] addresses sLgBiT-Dr-GPR25 (zebrafish (Danio rerio)). The assay is described as follows: split reporter (BiFC, NanoBiT); NanoBiT-based competition binding: constant 6 × His-SmBiT-Dr-CXCL17-like tracer and varied competitors on living HEK293T cells expressing sLgBiT-Dr-GPR25; serum-free DMEM, 0.1% BSA, 0.01% Tween-20, room temperature ~1 h.
The target of assay [2] is T1, sLgBiT-Dr-GPR25 (zebrafish (Danio rerio), UniProt A0AC58GT18 1-377).
T1 construct: G protein-coupled receptor 25 (GPR25), zebrafish (Danio rerio); In one experiment it was coexpressed with human TPST1 and TPST2; sulfation of the N-terminal tyrosines is only called potential; The chemotaxis assays used untagged Dr-GPR25 (PB-TRE/Dr-GPR25); also called N-terminally secretory LgBiT-fused Dr-GPR25; zebrafish GPR25; source: HEK293T, transfected (PB-TRE/sLgBiT-Dr-GPR25), Dox-induced, …
T1 sequence (looked up): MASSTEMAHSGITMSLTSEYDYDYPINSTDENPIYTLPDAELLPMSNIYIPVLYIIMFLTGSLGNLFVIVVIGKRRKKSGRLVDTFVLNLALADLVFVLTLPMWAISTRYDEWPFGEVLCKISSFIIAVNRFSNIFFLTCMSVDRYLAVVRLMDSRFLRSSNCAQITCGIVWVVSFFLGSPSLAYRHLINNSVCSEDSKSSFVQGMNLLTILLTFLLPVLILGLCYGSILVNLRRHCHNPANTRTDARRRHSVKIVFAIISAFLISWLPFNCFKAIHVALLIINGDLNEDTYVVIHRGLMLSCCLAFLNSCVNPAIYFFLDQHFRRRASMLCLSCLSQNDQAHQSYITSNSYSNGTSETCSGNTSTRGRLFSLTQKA
The description is as above. As to conditions: one partner purified.

Assay [3] has as its target T1, sLgBiT-Dr-GPR25. As to the kind of experiment: split reporter (BiFC, NanoBiT); NanoBiT-based homogeneous saturation binding: varied 6 × His-SmBiT-Dr-CXCL17-like on living HEK293T cells overexpressing sLgBiT-Dr-GPR25, without coexpression of TPST1 and TPST2; serum-free DMEM, 0.1% BSA, 0.01% Tween-20, room temperature ~1 h; non-specific binding with 1.0 μM unlabeled 6 × His-Dr-CXCL17-like. The settings on record: one partner purified.

In assay [4] the target is T1, sLgBiT-Dr-GPR25. As to the kind of experiment: split reporter (BiFC, NanoBiT); NanoBiT-based homogeneous saturation binding as before, but sLgBiT-Dr-GPR25 coexpressed with human TPST1 and TPST2 in HEK293T cells; serum-free DMEM, 0.1% BSA, 0.01% Tween-20, room temperature ~1 h. The settings on record: one partner purified.

The molecule 6 × His-Dr-CXCL17 (ligand) came in with an IC50 in assay [1] of 380 nM.

B1: 6 × His-Hs-CXCL17 (ligand, human, UniProt Q6UXB2 22-119, looked up)
chain: SSLNPGVARGHRDRGQASRRWLQEGGQECECKDWFLRAPRRKFMTVSGLPKKQCPCDHFKGNVKKTRHQRHHRKPNKHSRACQQFLKQCQLRSFALPL
notes: C-X-C motif chemokine ligand 17 (CXCL17), human; likely the mature peptide with an N-terminal 6 × His tag, as for the zebrafish proteins (surmised); also called Recombinant human CXCL17; source: recombinant
Take B1: the IC50 with sLgBiT-Dr-GPR25 [2] was around 230 nM.

B2: 6 × His-SmBiT-Dr-CXCL17-like (ligand, zebrafish (Danio rerio), UniProt A0AB13AB19 26-95, looked up)
chain: QRRSMKQSAVCGCKLYPDKGLKCTKRPNPKSRDEYYEILKCICRDTQIFSKSSRKEYLKRCNKFYPSLPL
notes: Dr-CXCL17-like, zebrafish (Danio rerio, Tübingen strain), mature peptide of 70 amino acids (residues 26-95 of the 95-residue precursor; predicted signal peptide of 25 residues left out); also called tracer; SmBiT-tagged tracer; not shown: His6, N-terminal, kept; SmBiT, N-terminal, kept
Turning to B2, the Kd was found to be 7.5 nM with sLgBiT-Dr-GPR25 [3] and 7.1 ± 0.9 nM with sLgBiT-Dr-GPR25 [4].

B3: 6 × His-Dr-CXCL17-like (ligand, zebrafish (Danio rerio), UniProt A0AB13AB19 26-95, looked up)
chain: B2 chain
notes: Dr-CXCL17-like, zebrafish (Danio rerio, Tübingen strain), mature peptide of 70 amino acids (residues 26-95 of the 95-residue precursor; predicted signal peptide of 25 residues left out); also called zebrafish CXCL17-like; A0AB13AB19; not shown: His6, N-terminal, kept
B3 yielded an IC50 with sLgBiT-Dr-GPR25 [2] of around 13 nM.
